Reference: patent publication US20240132578A1

Key:
Experiment in all cases: cell-based or functional assay
[1] = molecular target: HIV-1 envelope glycoprotein (Env) of isolate MGRM-AE-001, subtype AE (HIV-1)
[2] = molecular target: HIV-1 Env of isolate MGRM-F1-022 (pseudovirus) (HIV-1)
[3] = molecular target: HIV-1 92UG024 envelope protein (Env) on pseudovirus (HIV-1)
[4] = molecular target: HIV-1 envelope glycoprotein (Env) of isolate MGRM-Chronic-B-017, on pseudovirus (HIV-1)
[5] = molecular target: HIV-1 Env of isolate MGRM-F1-016 (pseudovirus) (HIV-1)
[6] = molecular target: HIV-1 envelope glycoprotein (Env) of isolate MG RM-A-007, subtype A (HIV-1)
[7] = molecular target: HIV-1 envelope glycoprotein (Env) of isolate 93WR029, subtype A (HIV-1)
[8] = molecular target: HIV-1 Env of isolate MGRM-AG-006 (pseudovirus) (HIV-1)
[9] = molecular target: HIV-1 MGRM-A-010 Env (HIV-1)
[10] = molecular target: HIV-1 JR-CSF Env E466A (HIV-1 (isolate JR-CSF)) (UniProt P20871)
[11] = molecular target: HIV-1 MGRM-D-018 envelope protein (Env) on pseudovirus (HIV-1)
[12] = molecular target: HIV-1 Env of isolate MGRM-F1-018 (HIV-1)
[13] = molecular target: HIV-1 Env of isolate MGRM-G-027 (subtype G) (HIV-1)
[14] = molecular target: HIV-1 Env of isolate VLGCA1 (pseudovirus) (HIV-1)
[15] = molecular target: HIV-1 Env of isolate 93IN905 (Clade C) (HIV-1)
[16] = molecular target: HIV-1 Env of isolate MGRM-Chronic-B-002, clade B (HIV-1)
[17] = molecular target: HIV-1 MGRM-G-004 Env (pseudovirus) (HIV-1)
[18] = molecular target: HIV-1 92UG024 envelope (Env) on pseudovirus (HIV-1)
[19] = molecular target: HIV-1 IAVI-C3 envelope (Env) on pseudovirus (HIV-1)
[20] = molecular target: HIV-1 Env of isolate MGRM-D-012 (clade D pseudovirus) (HIV-1)
[21] = molecular target: HIV-1 Env of pseudovirus MGRM-F1-015 (clade F) (HIV-1)
[22] = molecular target: HIV-1 Env of isolate 92UG001 (clade D pseudovirus) (HIV-1)
[23] = molecular target: HIV-1 APV-6 envelope (Env) on pseudovirus (HIV-1)
[24] = molecular target: HIV-1 Env of pseudovirus MGRM-G-027 (HIV-1)
[25] = molecular target: HIV-1 Env of isolate 93UG077 (clade A pseudovirus) (HIV-1)
[26] = molecular target: HIV-1 MGRM-AE-005 Env (pseudovirus) (HIV-1)
[27] = molecular target: HIV-1 envelope glycoprotein (Env) of isolate MGRM-C-010 (HIV-1)
[28] = molecular target: HIV-1 envelope glycoprotein (Env) of isolate MGRM-C-012 (HIV-1)
[29] = molecular target: HIV-1 Env of isolate 92TH021 (CRF01_AE) (HIV-1)
[30] = molecular target: HIV-1 Env of isolate MGRM-A-004 (clade A pseudovirus) (HIV-1)
[31] = molecular target: HIV-1 Env of isolate NL43, clade B (HIV-1)

Sequence of 1443_C16 (PG16) (TCN-116) (antibody) (VH): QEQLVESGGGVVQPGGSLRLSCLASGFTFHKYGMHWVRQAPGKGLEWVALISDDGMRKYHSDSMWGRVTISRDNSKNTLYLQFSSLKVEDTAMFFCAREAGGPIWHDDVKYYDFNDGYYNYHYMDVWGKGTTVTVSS
Sequence of 1443_C16 (PG16) (TCN-116) (antibody) (VL): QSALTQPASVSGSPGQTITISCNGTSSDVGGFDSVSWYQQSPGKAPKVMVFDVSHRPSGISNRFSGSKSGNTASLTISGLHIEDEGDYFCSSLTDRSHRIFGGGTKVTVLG

Substance | IC50, pseudovirus neutralization [1] | IC50 (µg/mL), pseudovirus neutralization [2] | IC50 (ug/mL), pseudovirus neutralization [3] | IC50, pseudovirus neutralization [4] | IC50 (µg/mL), pseudovirus neutralization [5] | IC50, pseudovirus neutralization [6] | IC50, pseudovirus neutralization [7] | IC50 (µg/mL), pseudovirus neutralization [8] | IC50, pseudovirus neutralization [9] | Fold IC50 increase relative to wild-type (pseudovirus neutralization) [10] | IC50 (ug/mL), pseudovirus neutralization [11] | other results
4838_L06 (PGT-121) (antibody) | > 50 µg/mL | 0.104 µg/mL | > 10 µg/mL | > 50 µg/mL | 0.931 µg/mL | > 50 µg/mL | > 50 µg/mL |  |  |  |  | 
5141_B17 (PGT-126) (antibody) | 9.68 µg/mL | > 50 µg/mL | > 10 µg/mL | > 50 µg/mL | > 50 µg/mL | > 50 µg/mL | > 50 µg/mL | 0.01 µg/mL | 0.0033 µg/mL | 1.4 fold | 0.0093 µg/mL | 
5145_B14 (PGT-127) (antibody) | > 50 µg/mL | > 50 µg/mL |  | > 50 µg/mL | > 50 µg/mL | > 50 µg/mL | > 50 µg/mL | 0.021 µg/mL |  | 0.9 fold |  | 
4877_D15 (PGT-122) (antibody) | > 50 µg/mL | 0.277 µg/mL | > 10 µg/mL | 5.66 µg/mL | 4.81 µg/mL | > 50 µg/mL | > 50 µg/mL | 0.028 µg/mL | 1.68 µg/mL |  | 0.0115 µg/mL | 
PGV04 (antibody) |  |  |  |  |  |  |  | 1.23 µg/mL |  |  |  | IC50 (µg/mL), pseudovirus neutralization [12]: 0.027 µg/mL; IC50 (µg/mL), pseudovirus neutralization [13]: 0.125 µg/mL; IC50 (µg/mL), pseudovirus neutralization [14]: 0.024 µg/mL
1443_C16 (PG16) (TCN-116) (antibody) |  |  |  |  |  |  |  |  |  |  |  | IC90 (neutralization of pseudovirus) [15]: > 50 µg/mL; IC50 (µg/ml), pseudovirus neutralization [16]: 3.06 µg/mL; IC50 (µg/ml), pseudovirus neutralization [17]: > 50 µg/mL; neutralization IC50 [18]: > 50 µg/mL; neutralization IC50 [19]: 14.8 µg/mL; IC50, pseudovirus neutralization [20]: 0.35 µg/mL; IC50 [21]: > 50 µg/mL; IC50, pseudovirus neutralization [22]: > 50 µg/mL; neutralization IC50 [23]: 0.08 µg/mL; IC50 (µg/ml), pseudovirus neutralization [24]: 0.01 µg/mL; IC50 (µg/ml), pseudovirus neutralization [25]: > 50 µg/mL; IC50 (µg/ml), pseudovirus neutralization [26]: 0.02 µg/mL; IC50 (µg/ml), pseudovirus neutralization [27]: > 50 µg/mL; IC50 (µg/ml), pseudovirus neutralization [28]: 0.48 µg/mL; IC90 (neutralization of pseudovirus) [29]: 23.4 µg/mL; IC50 (µg/ml), pseudovirus neutralization [30]: 0.04 µg/mL; IC50 (µg/ml), pseudovirus neutralization [31]: 0.02 µg/mL
5123_A06 (PGT-125) (antibody) | 2.95 µg/mL | > 50 µg/mL | > 10 µg/mL | > 50 µg/mL | > 50 µg/mL | > 50 µg/mL | > 50 µg/mL | 0.008 µg/mL | 0.0025 µg/mL | 1.6 fold | 0.0382 µg/mL | 
